The results in this text go back to patent US20190112393 (published 2019).

In one test the target is T1, human FcγRIa (human, UniProt P12314).
T1 chain: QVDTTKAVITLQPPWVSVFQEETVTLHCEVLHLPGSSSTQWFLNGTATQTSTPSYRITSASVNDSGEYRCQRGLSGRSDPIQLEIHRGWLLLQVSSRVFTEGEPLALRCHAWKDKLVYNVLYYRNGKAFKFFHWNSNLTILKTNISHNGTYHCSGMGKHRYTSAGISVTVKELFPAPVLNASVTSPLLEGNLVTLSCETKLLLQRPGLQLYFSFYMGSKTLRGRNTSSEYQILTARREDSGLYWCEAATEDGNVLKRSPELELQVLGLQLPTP
Kind of test: SPR.

The target of the next test is T2, human FcγRIIb (human, UniProt P31994).
T2 chain: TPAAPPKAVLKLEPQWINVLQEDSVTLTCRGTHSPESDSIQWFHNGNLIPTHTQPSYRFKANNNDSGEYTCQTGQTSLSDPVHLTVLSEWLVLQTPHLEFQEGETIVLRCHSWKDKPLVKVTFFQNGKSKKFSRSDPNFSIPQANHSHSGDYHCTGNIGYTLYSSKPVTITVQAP
Description: SPR.

The next test addresses human FcRn (human). Kind of test: SPR, pH 6.0.

human FcRn (human), sequence (chain, as listed by the source, chain 1 of 2): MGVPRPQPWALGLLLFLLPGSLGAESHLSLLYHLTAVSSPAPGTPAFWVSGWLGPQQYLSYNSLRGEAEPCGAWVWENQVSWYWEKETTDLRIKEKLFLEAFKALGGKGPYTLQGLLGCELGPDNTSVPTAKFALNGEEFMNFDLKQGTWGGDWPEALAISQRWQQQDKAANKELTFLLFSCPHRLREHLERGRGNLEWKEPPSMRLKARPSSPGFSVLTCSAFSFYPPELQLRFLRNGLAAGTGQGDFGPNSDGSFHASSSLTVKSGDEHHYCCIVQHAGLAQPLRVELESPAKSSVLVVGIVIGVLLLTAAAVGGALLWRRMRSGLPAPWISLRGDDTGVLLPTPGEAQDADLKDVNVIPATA
human FcRn (human), sequence (chain, as listed by the source, chain 2 of 2): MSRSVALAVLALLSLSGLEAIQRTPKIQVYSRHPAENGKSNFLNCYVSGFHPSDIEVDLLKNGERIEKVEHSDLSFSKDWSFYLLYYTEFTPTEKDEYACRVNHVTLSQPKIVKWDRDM

B1: BP544 (antibody)
chain 1: QVQLQESGPGLVKPSETLSLTCAVSGHSISHDHAWSWVRQPPGEGLEWIGFISYSGITNYNPSLQGRVTISRDNSKNTLYLQMNSLRAEDTAVYYCARSLARTTAMDYWGEGTLVTVSSASTKGPSVFPLAPSSKSTSGGTAALGCLVKDYFPEPVTVSWNSGALTSGVHTFPAVLQSSGLYSLSSVVTVPSSSLGTQTYICNVNHKPSNTKVDKKVEPKSCDKTHTCPPCPAPDLLGDDSVFLFPPKPKDTLMISRTPEVTCVVVDVSDEDGEVKFNWYVDGVEVHNAKTKPREEQDNSTYRVVSVLTVLHQDWLNGKEYKCKVSNKALPRPIEKTISKAKGQPREPQVYTLPPSQDELTKNQVSLTCLVKGFYPSDIAVEWESNGQPENNYKTTPPVLDSDGSFFLYSKLTVDKSRWQQGNVFSCSVMHEALHNHYTQESLSLSP
chain 2: not shown
Consider B1, for which the Kd with human FcγRIa was 9.8 nM; with human FcγRIIb, 17 nM.

B2: BP543 (antibody)
chain 1: QVQLQESGPGLVKPSETLSLTCAVSGHSISHDHAWSWVRQPPGEGLEWIGFISYSGITNYNPSLQGRVTISRDNSKNTLYLQMNSLRAEDTAVYYCARSLARTTAMDYWGEGTLVTVSSASTKGPSVFPLAPSSKSTSGGTAALGCLVKDYFPEPVTVSWNSGALTSGVHTFPAVLQSSGLYSLSSVVTVPSSSLGTQTYICNVNHKPSNTKVDKKVEPKSCDKTHTCPPCPAPDLLGDDSVFLFPPKPKDTLMISRTPEVTCVVVDVSQEDGEVKFNWYVDGVEVHNAKTKPREEQDNSTYRVVSVLTVLHQDWLNGKEYKCKVSNKALPRPIEKTISKAKGQPREPQVYTLPPSRDELTKNQVSLTCLVKGFYPSDIAVEWESNGQPENNYKTTPPVLDSDGSFFLYSKLTVDKSRWQQGNVFSCSVMHEALHNHYTQESLSLSP
chain 2: not shown
On to B2, for which the Kd stood at 23 nM with human FcγRIa and 20 nM in the test with human FcγRIIb.

B3: BP548 (antibody)
chain 1: QVQLQESGPGLVKPSETLSLTCAVSGHSISHDHAWSWVRQPPGEGLEWIGFISYSGITNYNPSLQGRVTISRDNSKNTLYLQMNSLRAEDTAVYYCARSLARTTAMDYWGEGTLVTVSSASTKGPSVFPLAPSSKSTSGGTAALGCLVKDYFPEPVTVSWNSGALTSGVHTFPAVLQSSGLYSLSSVVTVPSSSLGTQTYICNVNHKPSNTKVDKKVEPKSCDKTHTCPPCPAPDLLGDDSVFLFPPKPKDTLMISRTPEVTCVVVDVSDEDGEVKFNWYVDGVEVHNAKTKPREEQDNSTYRVVSVLTVLHQDWLNGKEYKCKVSNKALPRPIEKTISKAKGQPREPQVYTLPPSRDELTKNQVSLTCLVKGFYPSDIAVEWESNGQPENNYKTTPPVLDSDGSFFLYSKLTVDKSRWQEGNVFSCSVMHEALHNHYTQESLSLSP
chain 2: not shown
Regarding B3, the values for the Kd with human FcγRIa and in the test with human FcγRIIb were 12 nM and 19 nM, respectively.

B4: BP541 (antibody)
chain 1: QVQLQESGPGLVKPSETLSLTCAVSGHSISHDHAWSWVRQPPGEGLEWIGFISYSGITNYNPSLQGRVTISRDNSKNTLYLQMNSLRAEDTAVYYCARSLARTTAMDYWGEGTLVTVSSASTKGPSVFPLAPSSKSTSGGTAALGCLVKDYFPEPVTVSWNSGALTSGVHTFPAVLQSSGLYSLSSVVTVPSSSLGTQTYICNVNHKPSNTKVDKKVEPKSCDKTHTCPPCPAPDLLGDDSVFLFPPKPKDTLMISRTPEVTCVVVDVSDEDGEVQFNWYVDGVEVHNAKTKPREEQDNSTYRVVSVLTVLHQDWLNGKEYKCKVSNKALPRPIEKTISKAKGQPREPQVYTLPPSRDELTKNQVSLTCLVKGFYPSDIAVEWESNGQPENNYKTTPPVLDSDGSFFLYSKLTVDKSRWQQGNVFSCSVMHEALHNHYTQESLSLSP
chain 2: not shown
On to B4, for which the figures for the Kd in the test with human FcγRIa and with human FcγRIIb were 11 nM and 16 nM, respectively.

B5: Fv4-IgG1 (antibody)
chain 1: not shown
chain 2: DIQMTQSPSSLSASVGDSVTITCQASTDISSHLNWYQQKPGKAPELLIYYGSHLLSGVPSRFSGSGSGTDFTFTISSLEAEDAATYYCGQGNRLPYTFGQGTKVEIERTVAAPSVFIFPPSDEQLKSGTASVVCLLNNFYPREAKVQWKVDNALQSGNSQESVTEQDSKDSTYSLSSTLTLSKADYEKHKVYACEVTHQGLSSPVTKSFNRGEC
As to B5, in the test with human FcRn, the Kd amounted to 2400 nM.

B6: Fv4-YTE (antibody)
chain 1: QVQLQESGPGLVKPSETLSLTCAVSGHSISHDHAWSWVRQPPGEGLEWIGFISYSGITNYNPSLQGRVTISRDNSKNTLYLQMNSLRAEDTAVYYCARSLARTTAMDYWGEGTLVTVSSASTKGPSVFPLAPSSKSTSGGTAALGCLVKDYFPEPVTVSWNSGALTSGVHTFPAVLQSSGLYSLSSVVTVPSSSLGTQTYICNVNHKPSNTKVDKKVEPKSCDKTHTCPPCPAPELLGGPSVFLFPPKPKDTLYITREPEVTCVVVDVSHEDPEVKFNWYVDGVEVHNAKTKPREEQYNSTYRVVSVLTVLHQDWLNGKEYKCKVSNKALPAPIEKTISKAKGQPREPQVYTLPPSRDELTKNQVSLTCLVKGFYPSDIAVEWESNGQPENNYKTTPPVLDSDGSFFLYSKLTVDKSRWQQGNVFSCSVMHEALHNHYTQKSLSLSP
chain 2: DIQMTQSPSSLSASVGDSVTITCQASTDISSHLNWYQQKPGKAPELLIYYGSHLLSGVPSRFSGSGSGTDFTFTISSLEAEDAATYYCGQGNRLPYTFGQGTKVEIERTVAAPSVFIFPPSDEQLKSGTASVVCLLNNFYPREAKVQWKVDNALQSGNSQESVTEQDSKDSTYSLSSTLTLSKADYEKHKVYACEVTHQGLSSPVTKSFNRGEC
In turn, B6 yielded a Kd with human FcRn of 210 nM.

B7: F1170 (antibody)
chain 1: QVQLQESGPGLVKPSETLSLTCAVSGHSISHDHAWSWVRQPPGEGLEWIGFISYSGITNYNPSLQGRVTISRDNSKNTLYLQMNSLRAEDTAVYYCARSLARTTAMDYWGEGTLVTVSSASTKGPSVFPLAPSSKSTSGGTAALGCLVKDYFPEPVTVSWNSGALTSGVHTFPAVLQSSGLYSLSSVVTVPSSSLGTQTYICNVNHKPSNTKVDKKVEPKSCDKTHTCPPCPAPELLGGPSVFLFPPKPKDTLMISRTPEVTCVVVDVSHEDPEVKFNWYVDGVEVHNAKTKPREEQYNSTYRVVSVLTVLHQDWLNGKEYKCKVSNKALPAPIEKTISKAKGQPREPQVYTLPPSRDELTKNQVSLTCLVKGFYPSDIAVEWESNGQPENNYKTTPPVLDSDGSFFLYSKLTVDKSRWQQGNVFSCSVLHEALHSHYTRKELSLSP
chain 2: DIQMTQSPSSLSASVGDSVTITCQASTDISSHLNWYQQKPGKAPELLIYYGSHLLSGVPSRFSGSGSGTDFTFTISSLEAEDAATYYCGQGNRLPYTFGQGTKVEIERTVAAPSVFIFPPSDEQLKSGTASVVCLLNNFYPREAKVQWKVDNALQSGNSQESVTEQDSKDSTYSLSSTLTLSKADYEKHKVYACEVTHQGLSSPVTKSFNRGEC
B7 showed a Kd in the test with human FcRn of 150 nM.

B8: F1166 (antibody)
chain 1: QVQLQESGPGLVKPSETLSLTCAVSGHSISHDHAWSWVRQPPGEGLEWIGFISYSGITNYNPSLQGRVTISRDNSKNTLYLQMNSLRAEDTAVYYCARSLARTTAMDYWGEGTLVTVSSASTKGPSVFPLAPSSKSTSGGTAALGCLVKDYFPEPVTVSWNSGALTSGVHTFPAVLQSSGLYSLSSVVTVPSSSLGTQTYICNVNHKPSNTKVDKKVEPKSCDKTHTCPPCPAPELLGGPSVFLFPPKPKDTLYITREPEVTCVVVDVSHEDPEVKFNWYVDGVEVHNAKTKPREEQYNSTYRVVSVLTVLHQDWLNGKEYKCKVSNKALPAPIEKTISKAKGQPREPQVYTLPPSRDELTKNQVSLTCLVKGFYPSDIAVEWESNGQPENNYKTTPPVLDSDGSFFLYSKLTVDKSRWQQGNVFSCSVMHEALHNHYTRKELSLSP
chain 2: DIQMTQSPSSLSASVGDSVTITCQASTDISSHLNWYQQKPGKAPELLIYYGSHLLSGVPSRFSGSGSGTDFTFTISSLEAEDAATYYCGQGNRLPYTFGQGTKVEIERTVAAPSVFIFPPSDEQLKSGTASVVCLLNNFYPREAKVQWKVDNALQSGNSQESVTEQDSKDSTYSLSSTLTLSKADYEKHKVYACEVTHQGLSSPVTKSFNRGEC
Molecule B8 yielded a Kd in the test with human FcRn of 210 nM.

B9: F1167 (antibody)
chain 1: QVQLQESGPGLVKPSETLSLTCAVSGHSISHDHAWSWVRQPPGEGLEWIGFISYSGITNYNPSLQGRVTISRDNSKNTLYLQMNSLRAEDTAVYYCARSLARTTAMDYWGEGTLVTVSSASTKGPSVFPLAPSSKSTSGGTAALGCLVKDYFPEPVTVSWNSGALTSGVHTFPAVLQSSGLYSLSSVVTVPSSSLGTQTYICNVNHKPSNTKVDKKVEPKSCDKTHTCPPCPAPELLGGPSVFLFPPKPKDTLYITREPEVTCVVVDVSHEDPEVKFNWYVDGVEVHNAKTKPREEQYNSTYRVVSVLTVLHQDWLNGKEYKCKVSNKALPAPIEKTISKAKGQPREPQVYTLPPSRDELTKNQVSLTCLVKGFYPSDIAVEWESNGQPENNYKTTPPVLDSDGSFFLYSKLTVDKSRWQQGNVFNCSVMHEALHNHYTQKSLSLSP
chain 2: DIQMTQSPSSLSASVGDSVTITCQASTDISSHLNWYQQKPGKAPELLIYYGSHLLSGVPSRFSGSGSGTDFTFTISSLEAEDAATYYCGQGNRLPYTFGQGTKVEIERTVAAPSVFIFPPSDEQLKSGTASVVCLLNNFYPREAKVQWKVDNALQSGNSQESVTEQDSKDSTYSLSSTLTLSKADYEKHKVYACEVTHQGLSSPVTKSFNRGEC
Consider B9, for which the affinity with human FcRn, expressed as Kd, was 250 nM.

B10: F1171 (antibody)
chain 1: QVQLQESGPGLVKPSETLSLTCAVSGHSISHDHAWSWVRQPPGEGLEWIGFISYSGITNYNPSLQGRVTISRDNSKNTLYLQMNSLRAEDTAVYYCARSLARTTAMDYWGEGTLVTVSSASTKGPSVFPLAPSSKSTSGGTAALGCLVKDYFPEPVTVSWNSGALTSGVHTFPAVLQSSGLYSLSSVVTVPSSSLGTQTYICNVNHKPSNTKVDKKVEPKSCDKTHTCPPCPAPELLGGPSVFLFPPKPKDTLMISRTPEVTCVVVDVSHEDPEVKFNWYVDGVEVHNAKTKPREEQYNSTYRVVSVLTVLHQDWLNGKEYKCKVSNKALPAPIEKTISKAKGQPREPQVYTLPPSRDELTKNQVSLTCLVKGFYPSDIAVEWESNGQPENNYKTTPPVLDSDGSFFLYSKLTVDKSRWQQGNVFNCSVLHEALHSHYTQKSLSLSP
chain 2: DIQMTQSPSSLSASVGDSVTITCQASTDISSHLNWYQQKPGKAPELLIYYGSHLLSGVPSRFSGSGSGTDFTFTISSLEAEDAATYYCGQGNRLPYTFGQGTKVEIERTVAAPSVFIFPPSDEQLKSGTASVVCLLNNFYPREAKVQWKVDNALQSGNSQESVTEQDSKDSTYSLSSTLTLSKADYEKHKVYACEVTHQGLSSPVTKSFNRGEC
Take B10: the affinity in the test with human FcRn, expressed as Kd, was 240 nM.
